According to patent publication US20050014206A1, “Method of identifying compounds that specifically inhibit the anaphase promoting complex” (Boehringer Ingelhiem International GmbH, priority 2003, published 2005):
“Also recorded” adds a separate entry of the source. Values belong to the molecule of their own block, whether it stands above or below them.

Legend:
[1] = biological target: T1, APC3 (Homo sapiens, UniProt P30260); assay: Peptide binding assay (matrix-coupled peptides), APC3
T1 construct: HisHA; made in house; host or cells: Sf9 or Hi5 insect cells (baculovirus), used as lysate
T1 sequence (P30260 whole entry): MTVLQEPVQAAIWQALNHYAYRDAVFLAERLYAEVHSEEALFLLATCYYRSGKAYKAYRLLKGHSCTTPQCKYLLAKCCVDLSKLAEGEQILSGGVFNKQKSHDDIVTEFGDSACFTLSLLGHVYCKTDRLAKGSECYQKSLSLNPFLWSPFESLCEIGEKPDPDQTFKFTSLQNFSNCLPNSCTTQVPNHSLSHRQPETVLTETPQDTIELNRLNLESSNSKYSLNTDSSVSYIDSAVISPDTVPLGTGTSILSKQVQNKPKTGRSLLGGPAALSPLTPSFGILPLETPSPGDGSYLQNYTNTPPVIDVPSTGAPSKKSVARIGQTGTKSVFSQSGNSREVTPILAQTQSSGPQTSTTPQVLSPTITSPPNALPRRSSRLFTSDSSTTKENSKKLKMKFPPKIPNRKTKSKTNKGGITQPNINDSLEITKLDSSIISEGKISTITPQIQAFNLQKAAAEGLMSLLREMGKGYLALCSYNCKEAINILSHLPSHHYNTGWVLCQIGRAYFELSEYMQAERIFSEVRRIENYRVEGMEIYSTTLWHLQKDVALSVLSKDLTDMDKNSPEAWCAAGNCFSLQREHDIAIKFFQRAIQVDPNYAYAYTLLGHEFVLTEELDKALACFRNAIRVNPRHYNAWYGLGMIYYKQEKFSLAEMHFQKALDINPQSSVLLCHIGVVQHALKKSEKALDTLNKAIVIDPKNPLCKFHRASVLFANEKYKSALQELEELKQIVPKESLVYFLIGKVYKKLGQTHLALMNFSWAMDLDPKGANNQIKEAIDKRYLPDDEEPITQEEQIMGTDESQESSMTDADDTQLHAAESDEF
Method: (§1) Synthetic peptides used in binding and inhibition assays were […] (CDC20 C-terminus; SEQ ID NO:2), […] (CDH1 C-terminus; SEQ ID NO:1), […] (CDC20 N-terminus; SEQ ID NO:10), and CAVWSLSSCKPGFGVD (control; SEQ ID NO:11).
(§2) Peptide interaction assays were carried out as described in Wendt, K. S., et al., Nat Struct Biol 8:784-8 (2001). Synthetic peptides (see above) were immobilized via N-terminal cysteine residues onto maleinimide-activated POROS matrix ([…]) in 0.1 M HEPES, pH 7.9 for 3 hours. After washing with slightly acidic buffers, 100 μg of the resulting matrix were incubated with insect cell lysates containing recombinant APC subunits, or with fractions from anion chromatography, in total volumes of […] of TBS/T pH 7.5. After stringent washing in TBS/T 0.5 M NaCl, samples were analyzed by SDS-PAGE and immunoblotted with 12CA5 anti-HA antibodies or antibodies against APC subunits.
(§3) To test if APC3 would also interact with the C-termini of CDH1 and its related activator CDC20, insect cell lysates containing recombinantly expressed APC3 were incubated with synthetic peptides coupled to a matrix through their N-terminus. After washing, peptide-bound material was analyzed by western blot. […] In budding yeast, which lacks APC7, they share Cdc27p as their closest homologue.
(§4) In order to exclude any non-specific effects caused by incorrect folding of recombinantly expressed proteins, an alternative source of APC subunits was used in the peptide binding assays. As described above, late-eluting fractions from the ReSource Q column contained considerable amounts of the TPR subunits APC3, APC6, and APC7, while other subunits were found in lower abundance (FIG. 10).

[2] = biological target: T2, APC6 (Homo sapiens, UniProt Q13042); assay: Peptide binding assay (matrix-coupled peptides), APC6; details: for binding of recombinant APC6 to matrix-coupled peptide: insect cell lysates, western blot
T2 construct: HisHA; made in house; host or cells: Sf9 or Hi5 insect cells (baculovirus), used as lysate
T2 sequence (Q13042 whole entry): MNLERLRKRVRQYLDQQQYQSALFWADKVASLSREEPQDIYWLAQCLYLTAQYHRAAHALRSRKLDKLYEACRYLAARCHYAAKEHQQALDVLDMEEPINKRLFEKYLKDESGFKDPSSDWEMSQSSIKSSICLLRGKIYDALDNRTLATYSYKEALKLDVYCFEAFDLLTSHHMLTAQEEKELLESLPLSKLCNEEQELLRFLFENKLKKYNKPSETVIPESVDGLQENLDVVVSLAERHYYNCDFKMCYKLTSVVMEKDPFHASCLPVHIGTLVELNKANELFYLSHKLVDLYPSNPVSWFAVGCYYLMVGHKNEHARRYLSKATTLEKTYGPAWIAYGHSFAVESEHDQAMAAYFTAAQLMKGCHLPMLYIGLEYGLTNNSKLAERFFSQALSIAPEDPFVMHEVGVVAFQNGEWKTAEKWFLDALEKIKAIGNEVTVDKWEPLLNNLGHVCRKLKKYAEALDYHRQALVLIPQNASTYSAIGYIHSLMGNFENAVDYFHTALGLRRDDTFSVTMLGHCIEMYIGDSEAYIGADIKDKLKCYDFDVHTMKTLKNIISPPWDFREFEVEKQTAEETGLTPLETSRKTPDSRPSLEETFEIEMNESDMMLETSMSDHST
Method: as §1, §2, §3, §4

[3] = biological target: T3, holo-APC (Homo sapiens, UniProt P30260+Q9UJX3); assay: Peptide binding assay with holo-APC containing fractions; details: APC-containing anion exchange fractions
T3 construct: endogenous in cells; host or cells: HeLa cells, Source15Q fractions eluting around 450 mM KCl
Method: as §1
Pellets from 5×10^9 logarithmically grown HeLa cells (4C, Belgium) were lysed in 20 mM TrisCl pH7.7, 150 mM KCl, 0.5 mM DTT, 0.1% Tween-20, Protease Inhibitor mix (Sigma) using a french press and cleared by 100,000×g centrifugation for 1 h. After filtration through a 0.45 μm filter, extracts were loaded onto a 60 ml Source15Q anion exchange column (Amersham) at 4 ml/min. The column was washed with 20 mM Tris-Cl pH7.7, 150 mM KCl, 0.5 mM DTT until a drop in A280 indicated the end of the flowthrough. Elution was carried out with a gradient from 150 mM to 600 mM KCl. […]
Peptide interaction assays were carried out as described in Wendt, K. S., et al., Nat Struct Biol 8:784-8 (2001). […] After stringent washing in TBS/T 0.5 M NaCl, samples were analyzed by SDS-PAGE and immunoblotted with 12CA5 anti-HA antibodies or antibodies against APC subunits.
It was tested if CDH1's C-terminus would be sufficient to interact with holo-APC. For this, APC-containing fractions were incubated with the peptide matrix and analyzed for binding of APC by detection of all subunits. […]

[4] = biological target: T4, APC activation by CDH1 (Homo sapiens, UniProt P30260+Q9UJX3); assay: In vitro ubiquitination assay with [125I]-labelled cyclin B as substrate; assay type: biochemical; details: APC loaded with recombinant CDH1 in presence of peptide at 1 mg/ml, cyclin B fragment substrate
T4 construct: endogenous in cells; host or cells: APC immunopurified from HeLa cell extracts; CDH1 and cyclin B fragment recombinant
Method: (§5) Immunopurified holo-APC or subcomplexes were washed and incubated with purified recombinant CDH1 (0.5-1.0 μg per 10 μl bead volume) in TBS/T, or with insect cell lysates in TBS/T containing recombinant CDH1 proteins as indicated. Peptides for competition were used at 1 mg/ml, with the addition of 0.5 mM DTT to the buffer. Subsequently, bead-bound complexes were washed 3× with TBS/T and immunoblotted for binding of CDH1 or used in ubiquitination assays. In vitro ubiquitination reactions were performed as described (Kramer, E. R., et al., Curr Biol 8:1207-10 (1998)). Securin-myc-his substrate was detected by immunoblotting with monoclonal anti-Myc 9E10 antibodies. Alternatively, an iodinated N-terminal recombinant fragment of sea urchin cyclin B (amino acids 13-110) was used and visualized by autoradiography (Gieffers, C., et al., Mol Cell 7:907-13 (2001)).
(§6) What are the mechanistic consequences of the observed interactions between IR tail peptides and APC subunits? To address this, it was tested if the peptides would influence APC activity in in vitro ubiquitination assays. Immunopurified APC was loaded with recombinant CDH1 in the presence or absence of IR-tail or control peptides, washed, and used to ubiquitinate a radioactively labeled fragment of cyclin B (FIG. 6B). […] In contrast, an N-terminal CDC20 peptide had no effect on APC activation.

[5] = biological target: T5, APC7 (Homo sapiens, UniProt Q9UJX3); assay: Peptide binding assay (matrix-coupled peptides), APC7 and APC7 fragments; details: for binding of recombinant APC7 to matrix-coupled peptide: recombinant APC7 in insect cell lysates, western blot
T5 construct: HisHA; made in house; host or cells: Sf9 or Hi5 insect cells (baculovirus), used as lysate
T5 sequence (Q9UJX3 whole entry, the tested form may be a part): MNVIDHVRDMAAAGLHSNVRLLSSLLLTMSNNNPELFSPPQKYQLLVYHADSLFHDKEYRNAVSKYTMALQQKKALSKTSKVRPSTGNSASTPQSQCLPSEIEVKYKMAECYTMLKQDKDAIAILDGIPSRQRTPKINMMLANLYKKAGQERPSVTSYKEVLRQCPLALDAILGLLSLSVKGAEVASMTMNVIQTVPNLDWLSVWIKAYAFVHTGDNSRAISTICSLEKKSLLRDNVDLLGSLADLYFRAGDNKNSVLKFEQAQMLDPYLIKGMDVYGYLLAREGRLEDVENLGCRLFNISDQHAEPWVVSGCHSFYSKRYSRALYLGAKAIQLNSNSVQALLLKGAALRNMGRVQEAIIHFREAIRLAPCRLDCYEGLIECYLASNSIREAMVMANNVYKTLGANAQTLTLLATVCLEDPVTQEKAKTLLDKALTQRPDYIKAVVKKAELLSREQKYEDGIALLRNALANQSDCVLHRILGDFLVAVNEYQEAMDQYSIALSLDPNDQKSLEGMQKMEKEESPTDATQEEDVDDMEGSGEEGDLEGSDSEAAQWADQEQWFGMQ
Method: as §1, §2, §3, §4
Lastly, the region in APC7 responsible for binding to IR peptides was mapped.

[6] = biological target: T6, APC5 (Homo sapiens, UniProt Q9UJX4); assay: Peptide binding assay (matrix-coupled peptides), APC5; details: insect cell lysates; western blot
T6 construct: HisHA; made in house; host or cells: Sf9 or Hi5 insect cells (baculovirus), used as lysate
T6 sequence (Q9UJX4 whole entry): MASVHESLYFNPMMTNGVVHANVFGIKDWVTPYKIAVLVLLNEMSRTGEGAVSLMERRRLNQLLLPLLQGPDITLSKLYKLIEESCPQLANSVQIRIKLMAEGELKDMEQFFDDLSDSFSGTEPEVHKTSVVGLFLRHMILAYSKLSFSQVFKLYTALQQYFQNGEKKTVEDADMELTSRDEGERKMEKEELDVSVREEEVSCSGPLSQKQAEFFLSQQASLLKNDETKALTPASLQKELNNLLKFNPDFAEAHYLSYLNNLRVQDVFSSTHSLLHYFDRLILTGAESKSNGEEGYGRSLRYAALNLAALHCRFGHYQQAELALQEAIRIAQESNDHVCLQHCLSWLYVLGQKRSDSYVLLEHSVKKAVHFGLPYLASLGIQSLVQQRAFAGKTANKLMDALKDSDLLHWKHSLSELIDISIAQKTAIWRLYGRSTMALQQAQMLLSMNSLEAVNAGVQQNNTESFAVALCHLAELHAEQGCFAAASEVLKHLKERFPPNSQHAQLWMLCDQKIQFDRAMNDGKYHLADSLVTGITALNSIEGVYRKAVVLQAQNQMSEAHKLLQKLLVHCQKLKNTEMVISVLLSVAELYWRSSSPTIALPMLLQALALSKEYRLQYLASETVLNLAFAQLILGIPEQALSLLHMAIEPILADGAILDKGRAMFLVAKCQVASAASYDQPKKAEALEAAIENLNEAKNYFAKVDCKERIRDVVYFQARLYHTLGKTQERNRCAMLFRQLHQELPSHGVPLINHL
Method: as §1, §2, §3

[7] = biological target: T7, APC8 (Homo sapiens, UniProt Q9UJX2); assay: Peptide binding assay (matrix-coupled peptides), APC8; details: insect cell lysates; western blot
T7 construct: HisHA; made in house; host or cells: Sf9 or Hi5 insect cells (baculovirus), used as lysate
T7 sequence (Q9UJX2 whole entry): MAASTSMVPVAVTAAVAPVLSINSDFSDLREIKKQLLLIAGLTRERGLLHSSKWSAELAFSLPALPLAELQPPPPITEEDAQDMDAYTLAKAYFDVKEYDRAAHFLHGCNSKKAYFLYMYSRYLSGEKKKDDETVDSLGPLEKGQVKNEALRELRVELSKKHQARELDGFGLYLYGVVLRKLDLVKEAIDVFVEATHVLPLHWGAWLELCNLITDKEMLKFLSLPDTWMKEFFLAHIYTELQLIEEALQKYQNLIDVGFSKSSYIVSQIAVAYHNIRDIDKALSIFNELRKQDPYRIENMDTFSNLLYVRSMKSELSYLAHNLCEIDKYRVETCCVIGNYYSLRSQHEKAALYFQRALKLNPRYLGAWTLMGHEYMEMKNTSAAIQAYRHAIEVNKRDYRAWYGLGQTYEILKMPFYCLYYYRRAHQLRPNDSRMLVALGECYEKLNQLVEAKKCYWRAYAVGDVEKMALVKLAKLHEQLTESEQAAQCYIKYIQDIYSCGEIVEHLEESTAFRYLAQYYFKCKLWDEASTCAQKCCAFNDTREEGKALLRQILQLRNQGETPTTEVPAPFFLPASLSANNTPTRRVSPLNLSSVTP
Method: as §1, §2, §3

[8] = biological target: T8, CDC26 (Homo sapiens, UniProt Q8NHZ8); assay: Peptide binding assay (matrix-coupled peptides), CDC26; details: late-eluting Q column fractions from HeLa extracts; listed as CDH1 peptide
T8 construct: endogenous in cells; host or cells: HeLa cells, late-eluting Source15Q fractions
T8 sequence (Q8NHZ8 whole entry): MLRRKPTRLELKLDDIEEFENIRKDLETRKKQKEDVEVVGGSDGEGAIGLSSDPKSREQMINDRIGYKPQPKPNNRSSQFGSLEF
Method: as §1, §2, §4

[9] = biological target: T9, binding of recombinant CDH1 to APC (Homo sapiens, UniProt P30260+Q9UJX3); assay: CDH1 binding assay with competing peptides; details: peptides at 1 mg/ml; for effect of peptide on CDH1 binding to APC: quantitative immunoblotting with radiolabeled antibodies
T9 construct: endogenous in cells; host or cells: APC immunopurified from HeLa cell extracts; CDH1 recombinant, made in house
Method: as §5, §6

[10] = biological target: T10, recombinant HisHA-tagged APC5 (UniProt Q9UJX4 1-755); assay: matrix-coupled peptide pull-down from insect cell lysate, western blot
T10 construct: Expressed with baculovirus in insect cells; used as lysate; not shown: HisHA tag
T10 sequence (Q9UJX4 whole entry): as the sequence (Q9UJX4 whole entry) above
Method: as §2
(§7) To test if APC3 would also interact with the C-termini of CDH1 and its related activator CDC20, insect cell lysates containing recombinantly expressed APC3 were incubated with synthetic peptides coupled to a matrix through their N-terminus. After washing, peptide-bound material was analyzed by western blot. […] APC7, on the other hand, interacted strongly with the CDH1 C-terminus and moderately with CDC20's C-terminus (FIG. 5A), in a manner very similar to APC3. […] In budding yeast, which lacks APC7, they share Cdc27p as their closest homologue.

[11] = biological target: T11, recombinant HisHA-tagged APC8 (UniProt Q9UJX2 1-597); assay: as above
T11 construct: Expressed with baculovirus in insect cells; used as lysate; also called APC8/CDC23; not shown: HisHA tag
T11 sequence (Q9UJX2 whole entry): as the sequence (Q9UJX2 whole entry) above
Method: as §2, §7

[12] = biological target: native CDC26 from late-eluting anion exchange fractions of HeLa extract (human, UniProt Q8NHZ8 1-85); assay: matrix-coupled peptide pull-down from late-eluting Q column fractions, western blot
Sequence of native CDC26 from late-eluting anion exchange fractions of HeLa extract (Q8NHZ8 whole entry): as the sequence (Q8NHZ8 whole entry) above
Method: as §2, §4

[13] = recombinant APC3 in insect cell lysates, western blot
[14] = late-eluting Q column fractions from HeLa extracts
[15] = listed as C-terminal CDH1 peptide
[16] = listed as C-terminal peptide of CDH1
[17] = listed as C-terminal CDC20 peptide

binding of recombinant APC3 to matrix-coupled peptide [1, 13]: did not bind | binding of recombinant APC6 to matrix-coupled peptide [2]: low amounts | binding of holo-APC (all known subunits) to peptide matrix [3]: not
Molecule: CAVWSLSSCKPGFGVD (Control peptide) [reference compound]

effect of peptide on APC activation (ubiquitination activity) [4]: no effect
Molecule: CESDLHSLLQLDAPIPNAPPARW (listed as Homo sapiens) [N-terminal CDC20 peptide, synthetic peptide of the CDC20 N-terminus used as control, reference compound]

binding of native APC3 to peptide matrix [1, 14]: significantly retained | binding of recombinant APC3 to matrix-coupled peptide [1, 13]: even stronger binding | binding of native APC7 to peptide matrix [5, 14]: significantly retained | binding of recombinant APC7 to matrix-coupled peptide [5]: interacted strongly | binding of recombinant APC5 to matrix-coupled peptide [6]: interacted with neither | binding of recombinant APC8 to matrix-coupled peptide [7]: did not bind | binding of recombinant APC6 to matrix-coupled peptide [2]: bound only in low amounts | binding of native APC6 to peptide matrix ([2]; late-eluting Q column fractions from HeLa extracts, listed as CDH1 peptide): did not bind | binding of holo-APC (all known subunits) to peptide matrix [3]: strongly enriched | inhibitory effect compared with the CDC20 C-terminal peptide ([9]; comparison of the two C-terminal peptides): stronger effect | effect of peptide on CDH1 binding to APC [9, 15]: inhibit | effect of peptide on CDH1 binding to APC [9, 16]: diminished binding of CDH1 | effect of peptide on APC activation (ubiquitination activity) [4, 15]: inhibit | effect of peptide on APC activation (ubiquitination activity) [4, 16]: blocked APC activation efficiently
Molecule: CFSKTRSTKESVSVLNLFTRIR (listed as Homo sapiens) [CDH1 C-terminal peptide, IR peptide; authentic human CDH1 C-terminus]
binding of CDC26 to peptide matrix [8]: no binding at all; also recorded: did not bind

input APC3 bound to matrix-coupled peptide ([1]; recombinant APC3 in insect cell lysates, western blot, % of input): about 10% | binding of recombinant APC7 to matrix-coupled peptide [5]: moderately | binding of recombinant APC5 to matrix-coupled peptide [6]: interacted with neither | binding of recombinant APC8 to matrix-coupled peptide [7]: did not bind | binding of recombinant APC6 to matrix-coupled peptide [2]: bound only in low amounts | effect of peptide on CDH1 binding to APC [9]: diminished binding of CDH1 | effect of peptide on CDH1 binding to APC [9, 17]: inhibit | effect of peptide on APC activation (ubiquitination activity) [4]: blocked APC activation efficiently | effect of peptide on APC activation (ubiquitination activity) [4, 17]: inhibit
Molecule: CLRREREKASTSKSSLIHQGIR (listed as Homo sapiens) [C-terminal peptide of CDC20, IR peptide; authentic human CDC20 C-terminus]

binding result [10]: no binding | binding result [11]: no binding | binding result [12]: no binding
B1: CDH1 C-terminal peptide CFSKTRSTKESVSVLNLFTRIR (peptide)
peptide: CFSKTRSTKESVSVLNLFTRIR
modifications: in the peptide binding assays immobilized via the N-terminal cysteine onto maleinimide-activated POROS matrix; free peptide in the competition assays
notes: Synthetic peptide; also called CDH1 C-terminus; CDH1 peptide

binding result [10]: no binding | binding result [11]: no binding
B2: CDC20 C-terminal peptide CLRREREKASTSKSSLIHQGIR (peptide)
peptide: CLRREREKASTSKSSLIHQGIR
modifications: in the peptide binding assays immobilized via the N-terminal cysteine onto maleinimide-activated POROS matrix; free peptide in the competition assays
notes: Synthetic peptide; also called CDC20 C-terminus; CDC20 peptide
